Data as given in PMC8096239, “Nse5/6 is a negative regulator of the ATPase activity of the Smc5/6 complex”.

Biological target: Smc5/6 holo-complex (S5-S6-N2/N1-N3-N4);Nse5/6 (Saccharomyces cerevisiae;Saccharomyces …, UniProt Q08204;Q12749;P38632;Q07913;Q05541;P43124;Q03718;P40026 …, |)
Test: EMSA; purified super-complex containing Nse5/6; no significant perturbation vs holo-complex; EMSA: 200 nM hairpin, 20 mM HEPES-NaOH pH 7.5, 150 mM NaCl, 0.5 mM TCEP, 30 min at 4 C; 0.8% TBE-agarose gel, 50 V, 3 h, 4 C
Details: protein: recombinant;recombinant, tags: Smc5-FLAG, Smc6-AVI-HIS, HA-Nse2, HIS-TEV-Nse1, Nse3 untagged, Nse4-HALO-Myc;Nse5-C.tag (GAAEPEA), HIS-3C-Nse6, copies: 1;1;1;1;1;1;1;1, label: fluorescein on position 5 of thymine, 6-carbon spacer, 48 bp stem, 4 nt loop AATA, blunt end

B1: oligonucleotide C, self-annealed dsDNA hairpin (structured_DNA)
DNA: ATCAGTACTTGTCAACACGAGCAGCCCGTATATTCTCCTACAGCACTAAATATAGTGCTGTAGGAGAATATACGGGCTGCTCGTGTTGACAAGTACTGAT
modifications: internal fluorescein-dT (iFT), between S3 and S4 (position 51, in loop)
  binding result: binds
